± gives the uncertainty stated by the source.

B1: SH3 and PX domain-containing protein 2B, residues 155 to 209; numbered along this chain, A1X283 (parent)
chain: EQYVVVANYQKQESSEISLSVGQVVDIIEKNESGWWFVSTAEEQGWVPATCLEGQ
B2: WW domain-containing transcription regulator protein 1, residues 116 to 162; numbered along this chain, Q9GZV5 (parent)
chain: QSYDVTDELPLPPGWEMTFTATGQRYFLNHIEKITTWQDPRKAMNQP

The variants in the first data set derive from B1. As to the kind of experiment: abundance fitness (aPCA) (normalised: wild type 0, dead -1); higher = more abundant; growth selection in yeast, the domain comes from the species named. The conditions noted are these: Homo sapiens.
As for VQYVVVANYQKQESSEISLSVGQVVDIIEKNESGWWFVSTAEEQGWVPATCLEGQ [E1V], the abundance fitness is -0.035 ± 0.076.

For the variant IQYVVVANYQKQESSEISLSVGQVVDIIEKNESGWWFVSTAEEQGWVPATCLEGQ [E1I], the abundance fitness was -0.299 ± 0.33. On the same count and under the same terms, the same measure for AQYVVVANYQKQESSEISLSVGQVVDIIEKNESGWWFVSTAEEQGWVPATCLEGQ [E1A]: -0.364 ± 0.17. Turning to SQYVVVANYQKQESSEISLSVGQVVDIIEKNESGWWFVSTAEEQGWVPATCLEGQ [E1S], the abundance fitness is -0.177 ± 0.31.

DQYVVVANYQKQESSEISLSVGQVVDIIEKNESGWWFVSTAEEQGWVPATCLEGQ [E1D]: the abundance fitness is -0.108 ± 0.14. As to GQYVVVANYQKQESSEISLSVGQVVDIIEKNESGWWFVSTAEEQGWVPATCLEGQ [E1G], the abundance fitness is -0.315 ± 0.098. As for RQYVVVANYQKQESSEISLSVGQVVDIIEKNESGWWFVSTAEEQGWVPATCLEGQ [E1R], the abundance fitness was -0.469 ± 0.19. For the variant LQYVVVANYQKQESSEISLSVGQVVDIIEKNESGWWFVSTAEEQGWVPATCLEGQ [E1L], the abundance fitness is -0.001 ± 0.14. For KQYVVVANYQKQESSEISLSVGQVVDIIEKNESGWWFVSTAEEQGWVPATCLEGQ [E1K], the abundance fitness turned out to be 0.042 ± 0.16. As for MQYVVVANYQKQESSEISLSVGQVVDIIEKNESGWWFVSTAEEQGWVPATCLEGQ [E1M], the abundance fitness was -0.329 ± 0.24. The same measure, in the same setting: the same measure for EIYVVVANYQKQESSEISLSVGQVVDIIEKNESGWWFVSTAEEQGWVPATCLEGQ [Q2I]: -0.347 ± 0.29. For EAYVVVANYQKQESSEISLSVGQVVDIIEKNESGWWFVSTAEEQGWVPATCLEGQ [Q2A], the abundance fitness was -0.247 ± 0.11.

For the variant EDYVVVANYQKQESSEISLSVGQVVDIIEKNESGWWFVSTAEEQGWVPATCLEGQ [Q2D], the abundance fitness is -0.378 ± 0.18. With EGYVVVANYQKQESSEISLSVGQVVDIIEKNESGWWFVSTAEEQGWVPATCLEGQ [Q2G], the abundance fitness was -0.082 ± 0.081. Turning to EKYVVVANYQKQESSEISLSVGQVVDIIEKNESGWWFVSTAEEQGWVPATCLEGQ [Q2K], the abundance fitness is -0.062 ± 0.16.

In the case of EEYVVVANYQKQESSEISLSVGQVVDIIEKNESGWWFVSTAEEQGWVPATCLEGQ [Q2E], the abundance fitness was -0.328 ± 0.37. Regarding EHYVVVANYQKQESSEISLSVGQVVDIIEKNESGWWFVSTAEEQGWVPATCLEGQ [Q2H], the abundance fitness is -0.178 ± 0.35. With EFYVVVANYQKQESSEISLSVGQVVDIIEKNESGWWFVSTAEEQGWVPATCLEGQ [Q2F], the abundance fitness is -0.185 ± 0.47.

With ECYVVVANYQKQESSEISLSVGQVVDIIEKNESGWWFVSTAEEQGWVPATCLEGQ [Q2C], the abundance fitness is -0.086 ± 0.14.

In another data set the parent is B2. The data set is described as above. The conditions noted are these: Homo sapiens.
In the case of P40C, the abundance fitness was -0.92 ± 0.17.

As for P40L, the abundance fitness is -0.987 ± 0.06. For the variant P40W, the abundance fitness was -1 ± 0.069. For the variant P40N, the abundance fitness was -0.796 ± 0.086. As to P40F, the abundance fitness was -1.09 ± 0.4. In the case of P40A, the abundance fitness was -0.767 ± 0.077.

Take P40H: the abundance fitness was -0.988 ± 0.17. Take P40K: the abundance fitness is -0.834 ± 0.13. Regarding P40R, the abundance fitness is -0.999 ± 0.063. On to P40Q, for which the abundance fitness is -0.774 ± 0.053. Turning to P40I, the abundance fitness is -0.97 ± 0.17. For the variant P40D, the abundance fitness was -0.914 ± 0.14. In the case of P40E, the abundance fitness was -0.757 ± 0.086.

Take P40Y: the abundance fitness is -1.07 ± 0.14. With P40T, the abundance fitness was -0.857 ± 0.04.

For the variant P40S, the abundance fitness is -0.983 ± 0.064.

In the case of I31Y, the abundance fitness was -0.166 ± 0.1. N45C: the abundance fitness was -0.089 ± 0.037. Still for that read-out and setting: the same measure for N45T: -0.044 ± 0.025; for N45P: -0.135 ± 0.048. Same read-out and setting: next, N45G: -0.04 ± 0.031.

Regarding N45I, the abundance fitness is -0.084 ± 0.056.

N45M: the abundance fitness is -0.023 ± 0.045.

Consider N45A, for which the abundance fitness is -0.018 ± 0.025.

In the case of N45K, the abundance fitness is -0.052 ± 0.033.

As to N45D, the abundance fitness is -0.092 ± 0.055. Consider N45R, for which the abundance fitness is -0.109 ± 0.028.

As for N45S, the abundance fitness is -0.093 ± 0.041.

As to N45L, the abundance fitness is -0.118 ± 0.034. With N45Y, the abundance fitness came to 0.039 ± 0.051.

With N45V, the abundance fitness was -0.056 ± 0.024. Regarding N45W, the abundance fitness was -0.043 ± 0.041.

As for N45H, the abundance fitness is -0.09 ± 0.036. As to N45E, the abundance fitness is -0.125 ± 0.047.

For N45Q, the abundance fitness was -0.223 ± 0.064.

As to T36K, the abundance fitness was -0.954 ± 0.12.

Consider T36N, for which the abundance fitness was -0.754 ± 0.09. Take T36A: the abundance fitness is -0.377 ± 0.04. The same measure, in the same setting: the same measure for T36M: -0.532 ± 0.033; for T36Y: -0.992 ± 0.21; for T36F: -1.05 ± 0.28. Same read-out and setting: next, T36R: -0.858 ± 0.058; T36W: -0.986 ± 0.066; T36D: -0.816 ± 0.073.

Turning to T36S, the abundance fitness is -0.224 ± 0.044. T36H: the abundance fitness is -1.03 ± 0.09. As for T36L, the abundance fitness is -1.02 ± 0.1. Same read-out and setting: next, T36V: -0.736 ± 0.04.

In the case of T36G, the abundance fitness is -0.775 ± 0.038. On the same count and under the same terms, next, T36C: -0.305 ± 0.052; T36I: -0.831 ± 0.088. Consider T36E, for which the abundance fitness was -0.722 ± 0.031.

As for T36Q, the abundance fitness is -0.376 ± 0.051. In the case of W37M, the abundance fitness is -0.265 ± 0.041. Take W37D: the abundance fitness was -0.481 ± 0.057.

In the case of W37A, the abundance fitness is -0.376 ± 0.028. In the case of W37N, the abundance fitness was -0.364 ± 0.051. Take W37C: the abundance fitness is -0.52 ± 0.065. Still for that read-out and setting: the same measure for W37F: -0.047 ± 0.041; for W37Y: -0.073 ± 0.047; for W37H: -0.402 ± 0.04. In the case of W37E, the abundance fitness is -0.244 ± 0.032. Turning to W37Q, the abundance fitness was -0.328 ± 0.042.

Regarding W37L, the abundance fitness was -0.296 ± 0.026.

On to W37P, for which the abundance fitness was -0.51 ± 0.044. On to W37V, for which the abundance fitness was -0.348 ± 0.034. Consider W37R, for which the abundance fitness is -0.392 ± 0.03. Same read-out and setting: the same measure for W37K: -0.305 ± 0.026; for W37S: -0.324 ± 0.029; for R41Y: -1.11 ± 0.43. For R41M, the abundance fitness was -0.703 ± 0.099.

Regarding R41A, the abundance fitness was -0.5 ± 0.036. Still for that read-out and setting: next, R41G: -0.628 ± 0.034. Regarding R41P, the abundance fitness was -0.785 ± 0.068. On the same count and under the same terms, next, R41C: -0.689 ± 0.086.

Consider R41I, for which the abundance fitness was -0.603 ± 0.094. Take R41V: the abundance fitness was -0.518 ± 0.03. Still for that read-out and setting: the same measure for R41L: -0.747 ± 0.062; for R41W: -0.689 ± 0.069; for R41N: -0.505 ± 0.064. On to R41D, for which the abundance fitness is -0.806 ± 0.061.

On to R41E, for which the abundance fitness is -0.73 ± 0.05. Same read-out and setting: the same measure for R41F: -0.902 ± 0.25; for R41H: -0.719 ± 0.053. Take R41T: the abundance fitness is -0.4 ± 0.042. For R41Q, the abundance fitness is -0.447 ± 0.074. Regarding R41K, the abundance fitness was -0.688 ± 0.042. Same read-out and setting: next, Q38E: -0.117 ± 0.027. Q38L: the abundance fitness was -0.031 ± 0.025.

Take Q38D: the abundance fitness was -0.129 ± 0.033. On to Q38S, for which the abundance fitness is -0.109 ± 0.026. Same read-out and setting: next, Q38V: -0.108 ± 0.036; Q38M: -0.044 ± 0.028. Consider Q38R, for which the abundance fitness is -0.017 ± 0.023. Still for that read-out and setting: the same measure for Q38K: -0.037 ± 0.035. On to Q38F, for which the abundance fitness was -0.086 ± 0.042.

For the variant Q38G, the abundance fitness is -0.264 ± 0.028. Turning to Q38T, the abundance fitness was -0.095 ± 0.031. Q38A: the abundance fitness was -0.103 ± 0.032.

With Q38P, the abundance fitness is -0.879 ± 0.073. On the same count and under the same terms, next, Q38N: -0.104 ± 0.032; Q38W: -0.112 ± 0.033. Take Q38C: the abundance fitness is -0.085 ± 0.025. Regarding Q38H, the abundance fitness is -0.096 ± 0.048.

For the variant Q38I, the abundance fitness amounted to 0.005 ± 0.045.

For K42Y, the abundance fitness was -0.164 ± 0.037. Regarding K42F, the abundance fitness was -0.128 ± 0.061. With K42W, the abundance fitness is -0.304 ± 0.053. For the variant K42N, the abundance fitness turned out to be 0.045 ± 0.05. The same measure, in the same setting: the same measure for K42H: -0.061 ± 0.057; for K42D: -0.26 ± 0.061. Regarding K42V, the abundance fitness is -0.166 ± 0.045. Regarding K42C, the abundance fitness is -0.097 ± 0.048. As for K42T, the abundance fitness was -0.073 ± 0.042. K42Q: the abundance fitness was -0.105 ± 0.054. On the same count and under the same terms, next, K42I: -0.038 ± 0.036; K42M: -0.202 ± 0.051. Take K42S: the abundance fitness is -0.203 ± 0.035.

In the case of K42E, the abundance fitness is -0.052 ± 0.044. The same measure, in the same setting: next, K42G: -0.141 ± 0.036; K42A: -0.113 ± 0.03; K42L: -0.111 ± 0.034. As for K42P, the abundance fitness is -0.161 ± 0.033. As to K42R, the abundance fitness was -0.111 ± 0.04.

With D39V, the abundance fitness was -0.721 ± 0.065.
